Data on two molecules can be found in PMC9054013 (2022).

Broadly, the Kd is the concentration at which binding is half-saturated. The low end stands for higher affinity, the high end for lower affinity.

Common to all, as to assay: ITC
One experiment addresses FCHO2-N1+N2 E336A+F339S (human, UniProt Q0JRZ9-1 314-394, E336A | F339S).
The target of a further experiment is FCHO2-N1+N2 EEK mutant (human, UniProt Q0JRZ9-1 314-394, E320S | E321S | K326S).
For experiment [1], the target named is AP2 α-appendage (residues 695 to 938) (UniProt P17427 695-938).
Sequence of AP2 α-appendage (residues 695 to 938) (P17427 695-938): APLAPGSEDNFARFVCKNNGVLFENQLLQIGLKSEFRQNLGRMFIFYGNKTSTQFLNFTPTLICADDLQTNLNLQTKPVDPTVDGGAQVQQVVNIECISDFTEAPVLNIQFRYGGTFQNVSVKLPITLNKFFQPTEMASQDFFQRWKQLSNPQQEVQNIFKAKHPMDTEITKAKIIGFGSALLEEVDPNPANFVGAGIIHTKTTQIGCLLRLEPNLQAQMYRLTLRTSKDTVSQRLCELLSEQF

B1: Cμ2 (μ2 residues 160 to 435) (domain or fragment)
chain: GWRREGIKYRRNELFLDVLESVNLLMSPQGQVLSAHVSGRVVMKSYLSGMPECKFGMNDKIVIEKQGKGTADETSKSGKQSIAIDDCTFHQCVRLSKFDSERSISFIPPDGEFELMRYRTTKDIILPFRVIPLVREVGRTKLEVKVVIKSNFKPSLLAQKIEVRIPTPLNTSGVQVICMKGKAKYKASENAIVWKIKRMAGMKESQISAEIELLPTNDKKKWARPPISMNFEVPFAPSGLKVRYLKVFEPKLNYSDHDVIKWVRYIGRSGIYETRC
As to B1, the equilibrium dissociation constant (Kd) is 55 µM with FCHO2-N1+N2 E336A+F339S and 110 µM in the experiment with FCHO2-N1+N2 EEK mutant.

B2: FCHO1 C peptide (residues 426 to 448) (peptide)
chain: QSEEQVSKNLFGPPLESAFDHED
For B2, binding in experiment [1] was characterised by a dissociation constant (Kd) of 44 µM.
